One block for each molecule: values may come before it.
Assays:
[1] = molecular target: trypsin-cleaved Tuc2009 RBP head domain (in the nano-L06 complex) (Lactococcus phage Tuc2009); assay: crystal structure
[2] = molecular target: serendipitously cleaved BppL head domain (residues 52 to 173) in the tripod crystal (Lactococcus phage Tuc2009); assay: crystal structure
[3] = molecular target: Tuc2009 BppL (RBP) as in the tripod (Lactococcus phage Tuc2009); assay: crystal structure
[4] = molecular target: BppUct (C-terminal portion of Tuc2009 BppU, residues 194 to 322) (Lactococcus phage Tuc2009); assay: crystal structure
[5] = molecular target: T1, phage Tuc2009 receptor binding protein (RBP, BppL, ORF53) (Lactococcus phage Tuc2009); assay: BLI
T1 chain: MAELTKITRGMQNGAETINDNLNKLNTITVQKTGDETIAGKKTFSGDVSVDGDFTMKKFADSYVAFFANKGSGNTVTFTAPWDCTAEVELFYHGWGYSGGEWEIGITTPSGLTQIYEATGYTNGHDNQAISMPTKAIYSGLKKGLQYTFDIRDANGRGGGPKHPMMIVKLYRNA

[6] = molecular target: T2, Tuc2009 tripod BppUctAL complex (BppUct/BppA/BppL) (Lactococcus phage Tuc2009); assay: BLI
T2 chain 1: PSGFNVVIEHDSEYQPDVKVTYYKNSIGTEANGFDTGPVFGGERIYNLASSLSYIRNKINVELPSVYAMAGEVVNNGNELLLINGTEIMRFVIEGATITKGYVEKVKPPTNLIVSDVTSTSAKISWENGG
T2 chain 2: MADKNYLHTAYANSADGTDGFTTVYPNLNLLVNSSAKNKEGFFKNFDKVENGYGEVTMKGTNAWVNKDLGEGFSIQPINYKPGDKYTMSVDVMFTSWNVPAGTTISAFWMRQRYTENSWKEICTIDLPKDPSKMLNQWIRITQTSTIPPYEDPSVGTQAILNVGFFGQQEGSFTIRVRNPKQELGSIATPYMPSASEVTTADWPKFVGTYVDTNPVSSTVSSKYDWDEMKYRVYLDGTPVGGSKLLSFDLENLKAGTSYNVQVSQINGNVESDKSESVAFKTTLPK
T2 chain 3: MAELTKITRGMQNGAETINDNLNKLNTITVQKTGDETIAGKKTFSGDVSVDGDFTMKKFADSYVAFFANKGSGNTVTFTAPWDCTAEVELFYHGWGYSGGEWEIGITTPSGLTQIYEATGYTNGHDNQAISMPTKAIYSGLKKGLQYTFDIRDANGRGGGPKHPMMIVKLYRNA

stoichiometry N [1]: 3
Molecule: trypsin-cleaved Tuc2009 RBP head domain (in the nano-L06 complex) (domain or fragment)

stoichiometry N [2]: 3
Molecule: serendipitously cleaved BppL head domain (residues 52 to 173) in the tripod crystal (domain or fragment)

stoichiometry N [3]: 3
Molecule: Tuc2009 BppL (RBP) as in the tripod (natural protein)

stoichiometry N [4]: 3
Molecule: BppUct (C-terminal portion of Tuc2009 BppU, residues 194 to 322) (domain or fragment)

Kd [5]: 9.1 ± 0.7 nM
Kd [6]: 9.1 ± 0.6 nM
B1: nanobody nano-L06 (VHH)
VHH: QVQLVESGGGSVQAGGSLRLSCTASGFTFDDSDMGWYHQAPGNECELVSAIFSDGSTYYADSVKGRFTISRDNAKNTVYLQMNSLKPEDTAMYYCAAATTTVASPPVRHVCNGYWGQGTQVTVSS

Source: paper PMC4742702 (mBio, 2016)
